Assay results taken from patent US20050100951A1.

Experiments:
Ferritin = experiment: FITC-trypsin on ferritin-loaded hydrogel microspots (negative control); CCD camera
α-2-macroglobulin = experiment: FITC-trypsin on α-2-macroglobulin-loaded hydrogel microspots; CCD camera
[1] = tested on: T1, insulin receptor fragment (Peptide No. 1, phosphorylated)
T1 sequence: TRNIXQTNYYRK

| Flourescence Intensity (au) (Ferritin) | Flourescence Intensity (au) (α-2-macroglobulin) | Substance | loss of fluorescent signal (removal of the phosphate group, detected with anti-phosphotyrosine antibody) [1] |
| --- | --- | --- | --- |
| 20 | 800 | FITC-labeled trypsin (enzyme) | – |
| – | – | Leucocyte Antigene Related (LAR) protein tyrosin phosphatase | the LAR-PTPase selectively removes the phosphate group substantially completely from Peptide No. 1 |
